Data from patent US20250177445A1 (A2 BIOTHERAPEUTICS, published 2025).

Biological target: HLA-E*01:03 expressed on HLA-E knockout HeLa cells by mRNA transfection (human, UniProt P13747 22-358)
Test: cell-based or functional assay

B1: HLA-E activator receptor (third generation CAR: HLA-E scFv, CD8 hinge, CD28 transmembrane domain, CD28/41BB/CD3 intracellular domain) (receptor)
chain: QVQLRESGPSLVKPSQTLSLTCTVSGFSLTSYGVHWVRQPPGKGLEWLGVIWTGGTTNYNTALMSRLSITKDNSKSQVFLKMNSLQTDDTAIYYCARDGDSYNREAWFAYWGQGTLVTVSAGGGGSGGGGSGGGGSGGQIVLTQSPAVISASPGEKVILTCSASSSVSYMHWFQQKPGTSPKLWIYGTSNLASGVPARFSGGGSGTSYSLTISRMEAEDAATYYCQQRSRYPFTFGSGTKLEIKTTTPAPRPPTPAPTIASQPLSLRPEACRPAAGGAVHTRGLDFACDFWVLVVVGGVLACYSLLVTVAFIIFWVRSKRSRLLHSDYMNMTPRRPGPTRKHYQPYAPPRDFAAYRSKRGRKKLLYIFKQPFMRPVQTTQEEDGCSCRFPEEEEGGCELRVKFSRSADAPAYKQGQNQLYNELNLGRREEYDVLDKRRGRDPEMGGKPRRKNPQEGLYNELQKDKMAEAYSEIGMKGERRRGKGHDGLYQGLSTATKDTYDALHMQALPPR
EC50 of specific killing of HeLa cells by primary T cells: ~10000 HLA-E molecules
